Read-outs that look alike come from different tables or passages of the source.
Tests used:
[1] = Phase 1 single-dose (30 mg subcutaneous) pharmacokinetics and safety study in T2DM with normal or varying degrees of renal impairment; assay type: in vivo, human; settings: for AUC Ratio / Cmax Ratio: single 30 mg dose
Experimental: A Phase 1, open-label, nonrandomized study evaluated the pharmacokinetics of a single 30 mg subcutaneous dose of albiglutide in subjects with T2DM and normal or varying degrees of renal impairment. Eligible subjects were men and women from 30 to 75 years of age (inclusive) with T2DM and HbA1c between ≧6.0% and ≦10.5%. […] Participants on hemodialysis were on stable treatment for at least 3 months before screening and had serum albumin ≧[…] and hemoglobin ≧8 g/dL.
Venous blood samples for determination of albiglutide were drawn on Day 1 prior to dosing and 6 hours after dosing and on Days 2, 3, 5, 10, 14, 21, 29, and 42 after administration of albiglutide (30 mg subcutaneous). In subjects undergoing hemodialysis, Day 1 was planned to be the day before a scheduled hemodialysis day (Day 2). Following blood sampling on Day 1 (before dosing and 6 hours after dosing) blood samples were taken before and after each dialysis procedure over the next 7 weeks. For all subjects, each blood sample was about 3 mL and drawn into an EDTA collection tube, immediately placed on crushed ice and water, and centrifuged for 10 minutes at 1,500 g at 4° C. Approximately 1 mL of plasma was transferred to a sterile 1.8-mL tube (Nunc® CryoTube®, Sigma-Aldrich) and stored at −70° C. until assaying.
Albiglutide PK samples collected in participants undergoing hemodialysis also were analyzed to assess predialysis and postdialysis changes in albumin concentrations.
Plasma samples were analyzed for albiglutide by using a validated enzyme-linked immunosorbent assay (ELISA) and were diluted 100-fold with sample buffer before analysis. Albiglutide was captured using a rabbit anti-human GLP-1 (7-36) amide and detected using a rabbit anti-HSA conjugated to biotin. ELISA experiments were performed using the Furoninc® 96 well plate (Nunc, cat. #437796) with the following steps. 1) […], antibody coating solution of 5.0 μg/mL anti-GLP-1 (7-36) Amide (human) IgG (Peninsula Laboratories, cat. # T-4111) in 50 mM sodium carbonate-bicarbonate buffer pH 9.4 was added to each well, sealed with aseptic sealing tape and incubated for 24 hours (±12 hours) at nominally 4° C. The microtiter plate was washed 5 times with […] wash buffer (10 mM Sodium Phosphate, 150 mM NaCl, 0.05% Tween 20, pH 7.5) using plate washer; 2) […] blocking buffer of SuperBlock in PBS (SuperBlock (Pierce, cat. #37515) in PBS, 5.0% Rabbit Plasma) was added to each well, sealed and incubated with constant shaking for approximately 1.5 hour (±30 minutes) at ambient room temperature and the microtiter plate washed; 3) 100 mL of either standards, quality controls (QCs) or samples were added per well, sealed, incubated and washed; 4) 100 mL of Detection Antibody solution of Biotin Labelled Rabbit polyclonal to Human Serum Albumin (NOVUS Biologicals, cat. # NB 100-1674) was added per well, sealed, incubated and washed; 5) 100 mL of Reporter Tag solution (Streptavidin-HRPO Conjugate, Caltag, cat. # SA1007) was added per well, sealed, incubated and washed; 6) 100 mL of Development Substrate Pico (SuperSignal ELISA, Pierce, cat. #37070) was added, incubated and the plate read using plate reader (Wallac 1420 Victor Multilabel Counter, Perkin Elmer Life Sciences, Boston, Mass.). Sample concentrations were determined by interpolation from the standard curve, which was fitted using a weighted (1/x), 4-parameter logistic equation. The validated range of this assay (based on 10 μL of human plasma) is 50 ng/mL to 1,500 ng/mL.
During the single dose study and 3 of the phase 3 trials (Harmony 2, 4 and 5), the assay process was modified from manual pipetting of samples to robotic pipetting.
Pharmacokinetic calculations were based on actual sampling collection times. All statistical analyses of pharmacokinetic parameters were performed using SAS Version 9.1 or later (SAS Institute, Inc., Cary, N.C.). […]

[2] = in vivo, cited from earlier work

Albiglutide: recombinant fusion protein of 2 copies of modified human GLP-1 (fragment 7-36(A8G)) genetically fused in series to recombinant human serum albumin
Any event ([1]; Hemodialysis (n = 10)): 8 (80) n (%)
Dizziness ([1]; Hemodialysis (n = 10)): 2 (20) n (%)
Fatigue ([1]; Hemodialysis (n = 10)): 2 (20) n (%)
Headache ([1]; Hemodialysis (n = 10)): 3 (30) n (%)
Hypoglycemia, Documented Symptomatic ([1]; Hemodialysis (n = 10)): 1 (10) n (%)
Nausea ([1]; Hemodialysis (n = 10)): 5 (50) n (%)
Total no. of events ([1]; Hemodialysis (n = 10)): 38 n
Vomiting ([1]; Hemodialysis (n = 10)): 5 (50) n (%)
AUC Ratio ([1]; Hemodialysis:Normal): 0.99
Cmax Ratio ([1]; Hemodialysis:Normal): 1.11
AUC Ratio ([1]; Hemodialysis:Normal, listed as albiglutide): 0.99 (0.63, 1.57)
Any event ([1]; Moderate (n = 11)): 3 (27.3) n (%)
Dizziness ([1]; Moderate (n = 11)): 0 n (%)
Fatigue ([1]; Moderate (n = 11)): 0 n (%)
Headache ([1]; Moderate (n = 11)): 0 n (%)
Hypoglycemia, Documented Symptomatic ([1]; Moderate (n = 11)): 0 n (%)
Nausea ([1]; Moderate (n = 11)): 0 n (%)
Total no. of events ([1]; Moderate (n = 11)): 4 n
Vomiting ([1]; Moderate (n = 11)): 0 n (%)
AUC Ratio ([1]; Moderate:Normal): 1.32
Cmax Ratio ([1]; Moderate:Normal): 1.21
AUC Ratio ([1]; Moderate:Normal, listed as albiglutide): 1.32 (0.96, 1.80)
Any event ([1]; Normal (n = 10)): 8 (80) n (%)
Dizziness ([1]; Normal (n = 10)): 0 n (%)
Fatigue ([1]; Normal (n = 10)): 0 n (%)
Headache ([1]; Normal (n = 10)): 0 n (%)
Hypoglycemia, Documented Symptomatic ([1]; Normal (n = 10)): 0 n (%)
Nausea ([1]; Normal (n = 10)): 0 n (%)
Total no. of events ([1]; Normal (n = 10)): 8 n
Vomiting ([1]; Normal (n = 10)): 0 n (%)
Any event ([1]; Severe (n = 10)): 4 (40) n (%)
Dizziness ([1]; Severe (n = 10)): 0 n (%)
Fatigue ([1]; Severe (n = 10)): 0 n (%)
Headache ([1]; Severe (n = 10)): 1 (10) n (%)
Hypoglycemia, Documented Symptomatic ([1]; Severe (n = 10)): 2 (20) n (%)
Nausea ([1]; Severe (n = 10)): 0 n (%)
Total no. of events ([1]; Severe (n = 10)): 8 n
Vomiting ([1]; Severe (n = 10)): 0 n (%)
AUC Ratio ([1]; Severe:Normal): 1.39
Cmax Ratio ([1]; Severe:Normal): 1.23
AUC Ratio ([1]; Severe:Normal, listed as albiglutide): 1.39 (1.03, 1.89)
subjects with a hypoglycemic SAE ([1]; hemodialysis group, insulin-treated subject): One
half-life, geometric mean ([1]; participants with impaired renal function): 141 to 145 h
half-life, geometric mean ([1]; participants with normal renal function): 122 h
observed increase in AUC ([1]; patients with severe renal impairment): 30 to 40%
median time of peak concentrations (Tmax) ([1]; regardless of the level of renal impairment): 88 to 96 h
half-life [2]: approximately 5 days
half-life ([2]; listed as SEQ ID NO:1): about 5 days

— US20140378374A1, “METHODS OF TREATMENT” (GlaxoSmithKline Intellectual Property (No.2) Limited, priority 2013, published 2014)
